The record followed here is patent publication US20090291088A1 (Biogen, published 2009).

Changes are numbered by the printed parent chain.

Test [1] concerns the target T1, human IGF-1R expressed on cells (human, UniProt P08069 31-1367).
T1 construct: On MCF-7 tumor cells or on 3T3/CHO transfectants; precursor is processed into alpha and beta subunits; Signal peptide 1-30 left out as stated; also called wild type IGF-1R; IGF-1R 3T3
Briefly: binding to MCF-7 tumor cells.

The target in test [2] is T2, human IGF-1R(1-902)-His10 (human, UniProt P08069 31-932).
T2 construct: Cy5-labelled in tr-FRET; also called hIGF-1R-His10; IGF-1R-His
Briefly: protein ELISA.

Test [3] deals with T3, human IGF-1R(1-903)-Fc (human, UniProt P08069 31-933).
T3 construct: Made by Biogen Idec; Multimerises through IGF-1R and Fc; also called hIGF-1R-Fc; IGF-1R-Fc; not shown: C-terminal human IgG1-Fc tag
Nature of the test: ELISA, plate coated with soluble IGF-1 receptor Fc fusion protein, detection with anti-human kappa-HRP. The method, then: The plate was washed with phosphate-buffered saline (PBS, Irvine Scientific, Cat#9240), pH 7.4 plus 0.025% Tween 20 in the Skan Washer 300 (Skatron Instruments), blocked with buffer containing 1% nonfat milk, 0.05% Tween 20 in PBS, pH 7.4, and then incubated at room temperature for 1 hour. After incubation plate was washed with PBS plus 0.025% Tween 20 in the Skan Washer 300. […] Following a one hour incubation at room temperature, plate was washed with PBS plus 0.025% Tween 20 in the Skan Washer 300. […] Plate incubated for 1 hour at room temperature was washed with PBS plus 0.025% Tween 20 in the Skan Washer 300. […] The absorbance was measured at 450 nm, background 540 nm for TMB using the Molecular Devices plate reader. Data was analyzed using the SOFTMAX PRO software package version 4.3 LS (Molecular Devices Corp.).

A further test addresses T4, human INSR(28-956)-His10 (human, UniProt P06213 28-956).
T4 construct: range 28-956; Bought (R&D Systems 1544-IR); also called rh-INSR; soluble insulin receptor
Nature of the test: ELISA, plate coated with rh-INSR. The procedure: ELISA assays were performed to determine specific binding of the Fab fragment antibodies to soluble IGF-1R over the insulin receptor. […] Color development was stopped by addition of 4NH₂SO₄ and optical density is measured at 450 nm using a Molecular Devices plate reader and binding curves are generated.

The target of test [4] is T1, human IGF-1R expressed on cells. Briefly: flow cytometry, MCF-7 cells. The method, then:
The ability of Fabs to bind to the wild type IGF-1R was determined by flowcytometry using MCF-7 tumor cell line.
MCF-7 cells (Human Breast Adenocarcinoma from NCI) were split 24 hours prior to the setup of the assay to obtain 70% confluent monolayer. Routinely, MCF-7 cell line was maintained within 20 passages. Cells were lifted with cell dissociation buffer (Gibco catalog #13151-014), counted, washed and adjusted to 1×10⁶ cells/ml and one ml of cells were then added to each tube (12×75 mm tube Falcon catalog# 352054). Cells were pelleted and supernatant removed by centrifugation at 1200 rpm for 5 min and 100 μl of diluted antibodies were then added to the cell pellet. Purified Fabs were tested at a starting concentration of either 210 or 60 μg/ml with 1:3 dilutions in FACS buffer, down to 0.001 μg/ml. FACS buffer used throughout the assay was PBS (without Ca++/Mg++) containing 1% BSA (Sigma catalog# A-7906; Sigma-Aldrich Corp. (St. Louis, Mo., USA)) and 0.1% Sodium Azide (Sigma catalog #S2002). […] Samples were allowed to incubate on ice for 1 hour and 15 minutes then were washed with 2 ml FACS buffer and centrifuged at 1200 rpm for 5 minutes at 4° C. The supernatant was aspirated and 100 μl of the secondary detection antibody was added to each corresponding tube in FACS buffer. Samples were then incubated for 30 minutes on ice, in the dark. Cells were washed as described above, then, re-suspended in […] FACS buffer per tube/sample.
Cells were stained for live cell determination with Propidium Iodide staining solution (PI for dead cell exclusion; BD Pharmingen catalog# 51-66211E or 556463; use at 1:500 final in FACS buffer). Samples were run on the FACSCalibur instrument (Becton Dickinson) with 10,000 live events collected per sample.

Test [5] shares this target. Briefly: cell-based or functional assay.
For test [6], the target named is T5, Rhesus IGF-1R expressed on CHO cells (rhesus monkey, UniProt I2CWY3 31-1367).
T5 construct: whole, on cells; also called Rhesus IGF-1R/CHO
Nature of the test: flow cytometry and confocal microscopy, CHO transfectants.

The target in test [7] is T6, murine IGF-1R expressed on cells (mouse, UniProt Q60751 31-1373).
T6 construct: whole, on cells; also called mouse IGF-1R
Briefly: binding to CHO transfectants.

The target in test [8] is T3, human IGF-1R(1-903)-Fc. Briefly: ELISA on hIGF-1R-Fc, competitor biotinylated M14-G11.
The target of test [9] is T7, human insulin receptor expressed in mammalian cells (UniProt P06213 28-1382, limits assumed).
T7 construct: whole, on cells; Cells were solubilised with Triton X-100 before immunoprecipitation; also called INSR; IR
Nature of the test: immunoprecipitation from IR CHO lysate, western blot with mouse anti-human IR. The procedure: Recombinant IGF-1R and insulin receptor (IR) were independently expressed in mammalian cells (3T3 or CHO). […] Antibody/antigen complexes were released from the beads by acid treatment, applied to Tris-Glycine SDS-PAGE gels and blotted to nitrocellulose membranes. Detection was performed using mouse anti-human IR (FIG. 24A) or mouse anti-human IGF-1R (FIG. 24B) and goat α-mouse IgG.

For test [10], the target named is T2, human IGF-1R(1-902)-His10. Nature of the test: SPR, antibody over captured IGF-1R-10His. The method, then: All surface plasmon resonance (SPR) experiments were performed on a Biacore 3000 set to 25° C. using HBS-EP (Biacore, Cat. No. BR-1001-88) as the running buffer. A biotin-labeled anti-HisTag antibody (biotin-PENTA-His, Qiagen Cat. No. 34440) was immobilized to saturation on a Biacore SA chip (Cat. No. BR-1000-32) surface by injection at 500 nM in HBS-EP buffer. […] Subsequent to IGF-1R injections, flow rates were increased to 20 μL/min. A second, 130 μL injection of anti-IGF-1R antibody or Fab was performed to investigate interactions with the receptor. Each antibody and Fab was serially diluted from 64 nM to 0.5 nM to obtain concentration dependent kinetic binding curves. Each injection series was regenerated using 3×10 μL injections of 10 mM Acetate, pH 4.0, at 20 μL/min. Each curve was double referenced using (1) data obtained from a streptavidin surface devoid of IGF-1R and (2) data from a primary injection of IGF-1R followed by a secondary injection of HBS-EP buffer. The concentration series for each antibody and Fab was fit to the 1:1 binding model provided within the BiaEvaluation software of the manufacturer.
The rates at which the antibodies accumulate on the IGF-1R coated surface when applied at various concentrations as well as the rates at which they dissociated during applications of pure buffer were investigated by fitting the data to a 1:1 binding model. Approximate kinetic rate constants and equilibrium dissociation constant were calculated (Table 14).

In test [11] the target is T3, human IGF-1R(1-903)-Fc. Briefly: ELISA on hIGF-1R-Fc, competitor Zenon-labelled αIR3.

T6 sequence (Q60751 31-1373): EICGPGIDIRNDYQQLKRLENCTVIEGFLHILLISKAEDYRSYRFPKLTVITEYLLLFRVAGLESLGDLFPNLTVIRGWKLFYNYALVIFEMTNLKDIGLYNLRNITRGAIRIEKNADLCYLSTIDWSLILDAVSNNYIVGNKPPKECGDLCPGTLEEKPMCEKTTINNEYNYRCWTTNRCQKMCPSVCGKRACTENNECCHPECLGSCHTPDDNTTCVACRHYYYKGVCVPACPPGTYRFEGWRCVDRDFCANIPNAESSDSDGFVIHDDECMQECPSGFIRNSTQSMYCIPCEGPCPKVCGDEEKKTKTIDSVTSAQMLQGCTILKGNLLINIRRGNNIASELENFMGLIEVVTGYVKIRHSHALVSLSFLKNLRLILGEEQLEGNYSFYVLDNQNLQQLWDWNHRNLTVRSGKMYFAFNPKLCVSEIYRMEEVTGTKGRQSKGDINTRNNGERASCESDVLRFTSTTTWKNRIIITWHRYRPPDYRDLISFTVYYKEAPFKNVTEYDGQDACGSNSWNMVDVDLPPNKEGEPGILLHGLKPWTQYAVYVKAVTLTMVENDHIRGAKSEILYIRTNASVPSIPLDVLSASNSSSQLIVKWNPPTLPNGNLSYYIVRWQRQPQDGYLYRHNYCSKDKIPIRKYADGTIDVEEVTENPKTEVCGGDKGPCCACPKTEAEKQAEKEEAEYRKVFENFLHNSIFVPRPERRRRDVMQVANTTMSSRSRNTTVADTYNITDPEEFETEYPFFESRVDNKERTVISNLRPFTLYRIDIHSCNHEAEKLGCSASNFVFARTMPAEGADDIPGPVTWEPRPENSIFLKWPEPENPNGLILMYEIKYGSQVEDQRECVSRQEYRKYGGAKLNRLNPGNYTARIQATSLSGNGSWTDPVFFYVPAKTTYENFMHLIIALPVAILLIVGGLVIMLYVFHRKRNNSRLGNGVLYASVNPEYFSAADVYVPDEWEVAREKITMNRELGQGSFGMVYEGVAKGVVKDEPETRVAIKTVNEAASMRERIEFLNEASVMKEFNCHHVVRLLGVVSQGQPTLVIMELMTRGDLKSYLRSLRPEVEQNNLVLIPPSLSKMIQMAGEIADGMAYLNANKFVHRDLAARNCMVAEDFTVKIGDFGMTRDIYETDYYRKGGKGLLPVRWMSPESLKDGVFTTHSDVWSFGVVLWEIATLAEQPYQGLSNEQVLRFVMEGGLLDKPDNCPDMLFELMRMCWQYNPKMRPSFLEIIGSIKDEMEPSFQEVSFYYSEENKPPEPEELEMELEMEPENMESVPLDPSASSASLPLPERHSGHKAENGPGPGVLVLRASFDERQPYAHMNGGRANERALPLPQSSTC
T5 sequence (I2CWY3 entry or part of it): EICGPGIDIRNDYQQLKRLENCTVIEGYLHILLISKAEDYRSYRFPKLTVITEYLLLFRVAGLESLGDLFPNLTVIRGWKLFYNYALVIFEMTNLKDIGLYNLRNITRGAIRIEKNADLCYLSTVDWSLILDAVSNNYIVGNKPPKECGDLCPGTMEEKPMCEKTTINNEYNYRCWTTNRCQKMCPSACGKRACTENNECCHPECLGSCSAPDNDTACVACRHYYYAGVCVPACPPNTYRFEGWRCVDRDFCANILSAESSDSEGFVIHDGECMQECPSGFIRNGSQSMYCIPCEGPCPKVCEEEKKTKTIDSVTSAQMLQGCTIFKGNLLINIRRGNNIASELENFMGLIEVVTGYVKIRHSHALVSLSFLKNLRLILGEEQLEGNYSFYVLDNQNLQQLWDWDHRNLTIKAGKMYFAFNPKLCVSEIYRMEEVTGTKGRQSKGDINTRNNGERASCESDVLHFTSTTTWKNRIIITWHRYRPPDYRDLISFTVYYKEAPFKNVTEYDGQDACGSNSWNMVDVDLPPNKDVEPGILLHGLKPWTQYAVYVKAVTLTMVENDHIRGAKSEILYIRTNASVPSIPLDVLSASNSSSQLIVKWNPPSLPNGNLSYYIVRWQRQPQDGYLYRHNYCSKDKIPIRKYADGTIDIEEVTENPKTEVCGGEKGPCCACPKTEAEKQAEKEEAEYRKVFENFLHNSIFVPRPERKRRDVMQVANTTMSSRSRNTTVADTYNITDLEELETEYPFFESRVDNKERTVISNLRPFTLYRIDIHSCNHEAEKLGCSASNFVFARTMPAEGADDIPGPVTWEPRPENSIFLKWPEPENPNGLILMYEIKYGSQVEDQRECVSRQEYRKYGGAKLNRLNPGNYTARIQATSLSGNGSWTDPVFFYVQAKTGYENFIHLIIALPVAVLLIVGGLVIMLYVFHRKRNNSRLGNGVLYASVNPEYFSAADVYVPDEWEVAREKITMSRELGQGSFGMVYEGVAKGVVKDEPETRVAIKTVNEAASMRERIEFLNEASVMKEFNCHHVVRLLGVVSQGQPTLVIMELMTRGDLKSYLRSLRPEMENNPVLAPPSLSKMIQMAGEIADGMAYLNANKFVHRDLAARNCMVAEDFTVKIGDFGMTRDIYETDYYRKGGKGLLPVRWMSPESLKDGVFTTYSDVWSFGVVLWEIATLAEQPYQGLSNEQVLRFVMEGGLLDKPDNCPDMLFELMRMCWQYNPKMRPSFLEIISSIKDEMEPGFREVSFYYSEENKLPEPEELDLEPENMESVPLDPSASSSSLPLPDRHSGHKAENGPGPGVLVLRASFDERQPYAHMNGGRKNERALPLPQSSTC

B1: P1E2.3B12 (antibody, IgG2b, V domains shown)
VH: QVQLQQPGAELVKPGASVKLSCKASGYTFTSYWMHWVKQRPGQGLEWIGEINPTYGRSNYNEKFKSKATLTVDKSSSTAYMQLSSLTSEDSAVYYCARLVRLRYFDVWGAGTTVTVSS
VL: DIVMTQAAFSNPVTLGTSASISCRSSKSLLHSNGITYLYWYLQKPGQSPQLLIYQMSNLASGVPDRFSSSGSGTDFTLRISRVEAEDVGVYYCAQNLELPYTFGGGTKLEIK
notes: Murine hybridoma antibody, IgG2b/k; also called P1E2 (hybridoma)
Consider B1, for which the EC50 in [1] is 391 pM; in [2] it was 16 pM.

B2: P2A7.3E11 (antibody, IgG2a, V domains shown)
VH: QVQLQQSGPELVKPGASVKMSCKASGNTFTDYVINWVKQRTGQGLEWIGEIYPGNENTYYNEKFKGKATLTADKSSNTAYMQLSSLTSEDSAVYFCARGIYYYGSRTRTMDYWGQGTSVTVSS
VL: EVVLTQSPTAMAASPGEKITITCSASSTLSSNYLHWYQQKPGFSPKLLIYRTSNLASGVPGRFSGSGSGTSYSLTIGTMEAEDVATYYCQQGSSIPLTFGAGTKLELK
notes: Murine hybridoma antibody, IgG2a/k; also called muP2A7
For the molecule B2, the figures for the EC50 in test [1] and in test [2] were 447 pM and 11 pM, respectively.

B3: M12-G04.G4.P (antibody, human IgG4, V domains shown)
VH: EVQLLESGGGLVQPGGSLRLSCAASGFTFSKYTMHWVRQAPGKGLEWVSSIVSSGGWTDYADSVKGRFTISRDNSKNTLYLQMNSLRAEDTAVYYCARDRSIAAAGTGWSVSFVDWFDPWGQGTLVTVSS
VL: DIQMTQSPLSLSASVGDRVTITCRASQSINGYLNWYQQKPGKAPNLLIYATSSLQSGVPSRFSGSGSGTDFTLTISSLQPEDFATYYCQQSYSTPPYTFGQGTKLEIK
notes: Full-length human IgG4.P, kappa; also called G4 version of M12-G04
On to B3, for which the “EC50 (read off the curve)” value in the test with human IGF-1R(1-903)-Fc [3] was around 200 pM.

B4: M12-G04 Fab (Fab, V domains shown)
VH: B3 VH
VL: B3 VL
notes: Human phage Fab, kappa
On to B4, for which the binding result with human INSR(28-956)-His10 is “no binding (tested: about 5000 nM)”. The same molecule gave an EC50 in test [4] of 25000 pM.

B5: P1A2.2B11 (antibody, IgG2b, V domains shown)
VH: QIQLVQSGPELKKPGETVKISCKASGYTFTNHGMNWVKQAPGKGLKWMGWNTSTGEPTYADDFKGRFAFSLETSASTAFLQINNLKNEDTASYFCASPLYYMYGRYIDVWGAGTAVTVSS
VL: DIQMTQTTSSLSASLGDRVTISCRASQDISNYLNWYQQKPDGTIKLLIYYTSRLHSGVPSRFSGSGSGTDYSLTISNLEQEDFATYFCQQGKTLPWTFGGGTKLEIK
notes: Murine hybridoma antibody, IgG2b/k
For the molecule B5, the half-maximal effective concentration (EC50) in test [1] is 1100 pM; in [2], 23 pM.

B6: P1G10.2B8 (antibody, IgG1, V domains shown)
VH: QIQLVQSGPDLKKPGETVKISCKASGYTFTNHGMNWVKQAPGKDLKWMGWINTNTGEPTYADDFKGRFAFSLETSASTAYLQINNLKNEDTATYFCASPLYYRNGRYFDVWGAGTTVTVSS
VL: B5 VL with T43S, I44V, F83I
notes: Murine hybridoma antibody, IgG1/k
As to B6, the 50% effective concentration (EC50) in test [1] was 2060 pM; in test [2] it was 75 pM.

B7: M14-G11.G4.P (antibody, human IgG4, V domains shown)
VH: EVQLLESGGGLVQPGGSLRLSCAASGFTFSNYPMYWVRQAPGKGLEWVSRISSSGGRTVYADSVKGRFTISRDNSKNTLYLQMNSLRAEDTAVYYCARDRWSRSAAEYGLGGYWGQGTLVTVSS
VL: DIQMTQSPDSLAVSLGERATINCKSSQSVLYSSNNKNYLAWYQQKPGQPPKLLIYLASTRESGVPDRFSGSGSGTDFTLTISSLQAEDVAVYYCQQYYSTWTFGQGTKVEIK
notes: Full-length human IgG4.P, kappa; also called M14.G11.P; G4 version of M14-G11
Consider B7, for which the 50% effective concentration (EC50 (read off the curve)) with human IGF-1R(1-903)-Fc [3] was around 60 pM. Also, in test [5], the “inhibition of IGF-1 and IGF-2 mediated IGF-1R receptor phosphorylation (EC50)” value is below 1000 pM. For the same molecule, the binding result in [6] and in test [7] was “binds” each time.

B8: M14-G11.G4.P.agly (antibody, human IgG4 S228P, kappa, V domains shown)
VH: B7 VH
VL: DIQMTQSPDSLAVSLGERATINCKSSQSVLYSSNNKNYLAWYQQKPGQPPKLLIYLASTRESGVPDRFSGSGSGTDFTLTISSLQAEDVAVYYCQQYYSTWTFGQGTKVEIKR
notes: Full-length human aglycosylated IgG4.P, kappa; Places that say only 'M14-G11 antibody' were assigned to this version; also called M14-G11_Ab; Biotin-G11
Turning to B8, the “percent competition (relative to self-competition)” value with human IGF-1R(1-903)-Fc [8] was 90 to 100%. Besides, the “EC50 (read off the curve)” value with human IGF-1R(1-903)-Fc [3] is around 60 pM. The binding result in test [9] is “no binding”. In [10], this molecule gave a Kd of 110 pM, a koff of 0.00011 s⁻¹ and a kon of 1e+06 M⁻¹ s⁻¹. Moreover, the “percent competition (relative to self-competition)” value with human IGF-1R(1-903)-Fc [11] is 50 to 70%.
